# According to US20250276081A1, “Mucin-Active Proteases and Methods of Use” (priority 2022, published 2025):
# Legend:
# [1] = Complete blood count (CBC) after StcE injection; assay type: in vivo, mouse; conditions: 3 h, C57BL/6, n=1
# Experimental: In vivo toxicity studies. 10-week-old C57BL/6 mice (bred in-house) were injected with PBS or StcE (0.15 mg/kg or 15 mg/kg) via intravenous injection. 9-week-old female BALB/cJ mice (Jackson Labs) were injected with PBS or 10 mg/kg αHER2-eStcE via intraperitoneal injection. Mice were submitted to the Animal Diagnostic Lab at Stanford University for necropsy and complete blood count (CBC) analyses 3 h post injection.
# [2] = molecular target: T1, cell surface MUC1 on HeLa cells (Homo sapiens, UniProt P15941); assay: In cellulo MUC1 cleavage activity assay; assay type: cell-based
# T1 construct: subjected to flow cytometry for cell surface MUC1; endogenous in cells; host or cells: HeLa
# T1 sequence (P15941 24-1255): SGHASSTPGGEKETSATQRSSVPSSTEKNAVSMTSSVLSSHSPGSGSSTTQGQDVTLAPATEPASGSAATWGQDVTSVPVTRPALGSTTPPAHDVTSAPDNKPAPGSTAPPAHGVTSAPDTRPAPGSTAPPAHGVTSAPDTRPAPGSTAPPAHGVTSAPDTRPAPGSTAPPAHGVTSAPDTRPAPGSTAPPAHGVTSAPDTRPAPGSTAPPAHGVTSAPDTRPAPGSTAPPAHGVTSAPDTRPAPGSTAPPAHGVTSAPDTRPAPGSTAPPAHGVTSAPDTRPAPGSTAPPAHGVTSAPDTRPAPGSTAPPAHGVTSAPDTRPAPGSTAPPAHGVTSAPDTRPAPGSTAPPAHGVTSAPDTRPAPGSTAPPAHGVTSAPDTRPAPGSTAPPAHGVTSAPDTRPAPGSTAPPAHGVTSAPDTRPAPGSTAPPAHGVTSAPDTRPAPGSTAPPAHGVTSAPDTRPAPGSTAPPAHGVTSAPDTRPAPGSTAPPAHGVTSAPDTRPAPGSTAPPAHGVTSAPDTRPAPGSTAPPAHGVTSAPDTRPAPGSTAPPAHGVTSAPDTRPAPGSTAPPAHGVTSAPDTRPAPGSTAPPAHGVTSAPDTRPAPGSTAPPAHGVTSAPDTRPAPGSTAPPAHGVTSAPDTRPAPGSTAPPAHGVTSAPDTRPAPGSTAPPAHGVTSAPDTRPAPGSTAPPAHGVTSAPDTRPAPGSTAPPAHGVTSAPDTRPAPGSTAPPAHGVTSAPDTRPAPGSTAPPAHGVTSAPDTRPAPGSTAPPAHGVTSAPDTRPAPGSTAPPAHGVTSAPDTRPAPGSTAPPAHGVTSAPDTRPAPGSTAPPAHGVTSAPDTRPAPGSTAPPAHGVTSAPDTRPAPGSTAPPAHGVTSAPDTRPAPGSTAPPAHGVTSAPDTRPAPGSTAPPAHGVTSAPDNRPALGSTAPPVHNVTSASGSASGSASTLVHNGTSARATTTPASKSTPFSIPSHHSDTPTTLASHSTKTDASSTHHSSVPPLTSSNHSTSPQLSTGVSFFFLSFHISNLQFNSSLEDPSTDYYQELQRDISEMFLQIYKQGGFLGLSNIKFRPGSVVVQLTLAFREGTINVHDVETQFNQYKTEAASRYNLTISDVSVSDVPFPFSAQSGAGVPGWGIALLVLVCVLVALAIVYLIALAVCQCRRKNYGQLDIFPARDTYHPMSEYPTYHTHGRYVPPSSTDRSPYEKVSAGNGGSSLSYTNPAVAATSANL
# Experimental: Combinations of domain deletions and single point mutations yielded a total of eleven mutants for characterization, with expression yields ranging from 20-100 mg/L (Methods and FIG. 15B). In vitro activity against recombinant mucin substrates was quantified by densitometry following SDS-PAGE (FIG. 2b-c and FIG. 15C). […] To determine effective dissociation constants (Kd) of the mutants, cells were treated with the same concentrations of enzymes for 30 mins at 4° C. in the presence of the metal chelator and metalloprotease inhibitor EDTA, to prevent enzyme activity. In the latter case, binding was quantified via interaction of an anti-His tag antibody with the His-tagged mutants (FIG. 2d,g-h and FIG. 15f-g).
# In cellulo MUC1 cleavage activity assay. Hela cells resuspended at 4.5-5.0×10^5 cells in 150 μL of complete media were allocated per well to a 96-well ultra-low attachment round bottom plate (Corning). 50 μL of the different StcE mutants in PBS were added to the wells, and the plate was incubated at 37° C. for 1 h. […] For data analysis, the Alexa Fluor 647 mean fluorescence intensity of unstained and PBS-treated samples were used to define 0% and 100% cell surface MUC1, respectively, and each sample was normalized to percent MUC1 within each replicate. […]
# [3] = test system: mixed MCF10A^MUC1,±HER2 cells; assay: Mixed cell suspension survival assay under anchorage-free conditions; assay type: cell-based; conditions: 1 nM, 72 h
# Experimental: For mixed cell assays, MUC1ΔCT was induced with 200 ng/ml doxycycline for 24 h. A 1:1 mixture of 2.5×10^5 MCF10A^MUC1 and MCF10AMUC1, HER2 cells were seeded per well in a 24-well ultra-low attachment plate in 0.80 mL of complete media. 200 ng/ml doxycycline, 1 nM StcE, and 1 nM αHER2-eStcE were added as appropriate. The plate was incubated at 37° C., 5% CO2, 125 rpm. At t=0, 24, 48, and 72 h, cells were spun down at 350× g for 5 min, resuspended in 100 μL of PBS with 0.1% benzonase, and incubated at room temperature for 15 min. Cells were then resuspended in 200 μL of enzyme-free cell dissociation buffer and stained with Alexa Fluor 647 anti-human CD340 (erbB2/HER-2) antibody (24D2 clone) (BioLegend) and 500 nM Sytox Green Nucleic Acid Stain (Thermo Fisher Scientific) for 20 min at 4° C., according to manufacturer recommendations, prior to analysis using a BD Accuri C6 plus. All flow cytometry data were analyzed using FlowJo v. 10.0 (TreeStar).
# [4] = test system: mucins in plasma and tissues; assay: In vivo mucin degradation Western blot after StcE; parameters: species or system mouse; conditions: 0.25 mg/kg
substance,measurement,setting,value
"StcE: secreted protease of C1 esterase inhibitor, zinc metalloprotease pan mucinase from E. coli O157:H7; SEQ ID NO:1",Basophil absolute,[1]; StcE 0.15 mg/kg I.V.,0
same,Basophils,[1]; StcE 0.15 mg/kg I.V.,0%
same,Eosinophil absolute,[1]; StcE 0.15 mg/kg I.V.,44
same,Eosinophils,[1]; StcE 0.15 mg/kg I.V.,1%
same,Hematocrit (HCT),[1]; StcE 0.15 mg/kg I.V.,45.5%
same,Hemoglobin (HGB),[1]; StcE 0.15 mg/kg I.V.,14 gm/dL
same,Immature reticulocyte fraction (IRF),[1]; StcE 0.15 mg/kg I.V.,54.9%
same,Low fluorescence reticulocytes (LFR),[1]; StcE 0.15 mg/kg I.V.,45.1%
same,Lymphocyte absolute,[1]; StcE 0.15 mg/kg I.V.,4085
same,Lymphocytes,[1]; StcE 0.15 mg/kg I.V.,92%
same,MHC concentration (MCHC),[1]; StcE 0.15 mg/kg I.V.,30.8 g/dL
same,Mean corpuscular hemoglobin (MCH),[1]; StcE 0.15 mg/kg I.V.,14.3 pg
same,Mean corpuscular volume (MCV),[1]; StcE 0.15 mg/kg I.V.,46.5 fL
same,Mean platelet volume (MPV),[1]; StcE 0.15 mg/kg I.V.,7.3 fL
same,Medium fluorescence reticulocytes (MFR),[1]; StcE 0.15 mg/kg I.V.,18.7%
same,Monocyte absolute,[1]; StcE 0.15 mg/kg I.V.,133
same,Monocytes,[1]; StcE 0.15 mg/kg I.V.,3%
same,Neutrophil absolute,[1]; StcE 0.15 mg/kg I.V.,178
same,Neutrophils,[1]; StcE 0.15 mg/kg I.V.,4%
same,Platelet count,[1]; StcE 0.15 mg/kg I.V.,1345 K/μL
same,Platelet distribution width (PDW),[1]; StcE 0.15 mg/kg I.V.,8.9 fL
same,Platelet estimate,[1]; StcE 0.15 mg/kg I.V.,Adequate
same,Platelet-large cell ratio (P-LCR),[1]; StcE 0.15 mg/kg I.V.,8.7%
same,RBC morphology,[1]; StcE 0.15 mg/kg I.V.,Normal
same,Red blood cell (RBC),[1]; StcE 0.15 mg/kg I.V.,9.78 M/μL
same,Red cell distribution width (RDW),[1]; StcE 0.15 mg/kg I.V.,19.2%
same,Reticulocyte absolute,[1]; StcE 0.15 mg/kg I.V.,442056 µL⁻¹
same,Reticulocyte count,[1]; StcE 0.15 mg/kg I.V.,4.52%
same,White blood cell (WBC),[1]; StcE 0.15 mg/kg I.V.,4.44 K/μL
same,Basophil absolute,[1]; StcE 15 mg/kg I.V.,0
same,Basophils,[1]; StcE 15 mg/kg I.V.,0%
same,Eosinophil absolute,[1]; StcE 15 mg/kg I.V.,39
same,Eosinophils,[1]; StcE 15 mg/kg I.V.,1%
same,Hematocrit (HCT),[1]; StcE 15 mg/kg I.V.,58.9%
same,Hemoglobin (HGB),[1]; StcE 15 mg/kg I.V.,18.3 gm/dL
same,Immature reticulocyte fraction (IRF),[1]; StcE 15 mg/kg I.V.,52.3%
same,Low fluorescence reticulocytes (LFR),[1]; StcE 15 mg/kg I.V.,47.7%
same,Lymphocyte absolute,[1]; StcE 15 mg/kg I.V.,1458
same,Lymphocytes,[1]; StcE 15 mg/kg I.V.,37%
same,MHC concentration (MCHC),[1]; StcE 15 mg/kg I.V.,31.1 g/dL
same,Mean corpuscular hemoglobin (MCH),[1]; StcE 15 mg/kg I.V.,14 pg
same,Mean corpuscular volume (MCV),[1]; StcE 15 mg/kg I.V.,44.9 fL
same,Mean platelet volume (MPV),[1]; StcE 15 mg/kg I.V.,6.8 fL
same,Medium fluorescence reticulocytes (MFR),[1]; StcE 15 mg/kg I.V.,28%
same,Monocyte absolute,[1]; StcE 15 mg/kg I.V.,315
same,Monocytes,[1]; StcE 15 mg/kg I.V.,8%
same,Neutrophil absolute,[1]; StcE 15 mg/kg I.V.,2128
same,Neutrophils,[1]; StcE 15 mg/kg I.V.,54%
same,Platelet count,[1]; StcE 15 mg/kg I.V.,82 K/μL
same,Platelet distribution width (PDW),[1]; StcE 15 mg/kg I.V.,7.2 fL
same,Platelet estimate,[1]; StcE 15 mg/kg I.V.,Decreased
same,Platelet-large cell ratio (P-LCR),[1]; StcE 15 mg/kg I.V.,5.5%
same,RBC morphology,[1]; StcE 15 mg/kg I.V.,Normal
same,Red blood cell (RBC),[1]; StcE 15 mg/kg I.V.,13.11 M/μL
same,Red cell distribution width (RDW),[1]; StcE 15 mg/kg I.V.,22.2%
same,Reticulocyte absolute,[1]; StcE 15 mg/kg I.V.,860016 µL⁻¹
same,Reticulocyte count,[1]; StcE 15 mg/kg I.V.,6.56%
same,White blood cell (WBC),[1]; StcE 15 mg/kg I.V.,3.94 K/μL
same,Concentration at which the enzyme is active,[2],single digit nanomolar
same,Suspension survival in mixed HER2^+ and HER2- populations,[3],cell death in both populations
same,Digestion of mucins in plasma and tissues,[4],digested mucins throughout the body
